The values that follow come from the supplement of paper PMC5998384.

For series [1], the system named is HeLa Kyoto. Put plainly: melting temperature (median over replicates), in situ; higher = more thermally stable.
Series [2] has as its system HeLa Kyoto. Put plainly: thermal stability score vs G1/S (z-score of summed log2 fold changes over temperatures); higher = more thermally stable than in G1/S.
Series [3] relates to HeLa Kyoto. Put plainly: solubility in G1/S (NP-40 vs SDS abundance) (log2 ratio); higher = more soluble. The following applies: cell cycle stage: G1/S.
Series [4] deals with HeLa Kyoto. Put plainly: solubility change mitosis vs G1/S (difference of NP-40 vs SDS log2 ratios) (log2 ratio difference); higher = more soluble in mitosis.
Setting [5] is: cell cycle stage: early G1 (4.5 h after nocodazole release).
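For melting temperature (median over replicates), in situ in this document: HeLa Kyoto cells synchronized by double thymidine or nocodazole block, proteins quantified by TMT10plex mass spectrometry, three independent biological replicates.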
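For solubility change mitosis vs G1/S (difference of NP-40 vs SDS log2 ratios) in this document: synchronized HeLa Kyoto cells (double thymidine block for G1/S, nocodazole release for mitosis), protein amounts in NP-40 versus SDS lysates quantified by mass spectrometry, three biological replicates.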
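For solubility in G1/S (NP-40 vs SDS abundance) in this document: HeLa Kyoto cells arrested at G1/S by double thymidine block, proteins quantified by TMT10plex mass spectrometry in mild NP-40 versus SDS extracts, three biological replicates.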
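For thermal stability score vs G1/S (z-score of summed log2 fold changes over temperatures) in this document: synchronized HeLa Kyoto cells, proteins quantified by TMT10plex mass spectrometry, three biological replicates, mitosis taken 0.5 h after nocodazole release, G1/S directly after double thymidine block.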

With “MATSLGSNTYNRQNWEDADFPILCQTCLGENPYIRMTKEKYGKECKICARPFTVFRWCPGVRMRFKKTEVCQTCSKLKNVCQTCLLDLEYGLPIQVRDAGLSFKDDMPKSDVNKEYYTQNMEREISNSDGTRPVGMLGKATSTSDMLLKLARTTPYYKRNRPHICSFWVKGECKRGEECPYRHEKPTDPDDPLADQNIKDRYYGINDPVADKLLKRASTMPRLDPPEDKTITTLYVGGLGDTITETDLRNHFYQFGEIRTITVVQRQQCAFIQFATRQAAEVAAEKSFNKLIVNGRRLNVKWGRSQAARGKEKEKDGTTDSGIKLEPVPGLPGALPPPPAAEEEASANYFNLPPSGPPAVVNIALPPPPGIAPPPPPGFGPHMFHPMGPPPPFMRAPGPIHYPSQDPQRMGAHAGKHSSP [RBM22]”, the melting temperature in the series with HeLa Kyoto [1] (cell cycle stage: G1/S) was 48.6 °C; in the series on HeLa Kyoto [1] (cell cycle stage: mitosis), 49.8 °C. In addition, the thermal stability score with HeLa Kyoto [2] (setting [5]) was -0.922; in the series on HeLa Kyoto [2] (cell cycle stage: mitosis), -0.478. In the series with HeLa Kyoto [3], the “solubility in G1/S (log2)” value was -0.116. Moreover, the “solubility change mitosis (log2)” value in the series with HeLa Kyoto [4] turned out to be 0.274.

Take “MATSNLLKNKGSLQFEDKWDFMRPIVLKLLRQESVTKQQWFDLFSDVHAVCLWDDKGPAKIHQALKEDILEFIKQAQARVLSHQDDTALLKAYIVEWRKFFTQCDILPKPFCQLEITLMGKQGSNKKSNVEDSIVRKLMLDTWNESIFSNIKNRLQDSAMKLVHAERLGEAFDSQLVIGVRESYVNLCSNPEDKLQIYRDNFEKAYLDSTERFYRTQAPSYLQQNGVQNYMKYADAKLKEEEKRALRYLETRRECNSVEALMECCVNALVTSFKETILAECQGMIKRNETEKLHLMFSLMDKVPNGIEPMLKDLEEHIISAGLADMVAAAETITTDSEKYVEQLLTLFNRFSKLVKEAFQDDPRFLTARDKAYKAVVNDATIFKLELPLKQKGVGLKTQPESKCPELLANYCDMLLRKTPLSKKLTSEEIEAKLKEVLLVLKYVQNKDVFMRYHKAHLTRRLILDISADSEIEENMVEWLREVGMPADYVNKLARMFQDIKVSEDLNQAFKEMHKNNKLALPADSVNIKILNAGAWSRSSEKVFVSLPTELEDLIPEVEEFYKKNHSGRKLHWHHLMSNGIITFKNEVGQYDLEVTTFQLAVLFAWNQRPREKISFENLKLATELPDAELRRTLWSLVAFPKLKRQVLLYEPQVNSPKDFTEGTLFSVNQEFSLIKNAKVQKRGKINLIGRLQLTTERMREEENEGIVQLRILRTQEAIIQIMKMRKKISNAQLQTELVEILKNMFLPQKKMIKEQIEWLIEHKYIRRDESDINTFIYMA [CUL5]”: the melting temperature in the series on HeLa Kyoto [1] (cell cycle stage: G1/S) was 55.6 °C; with HeLa Kyoto [1] (cell cycle stage: mitosis) it was 54 °C. Moreover, the values for the thermal stability score with HeLa Kyoto [2] (setting [5]) and in the series with HeLa Kyoto [2] (cell cycle stage: mitosis) were -0.282 and -0.5, respectively. Further, in the series with HeLa Kyoto [3], the “solubility in G1/S (log2)” value is -0.152. In addition, in the series on HeLa Kyoto [4], the “solubility change mitosis (log2)” value is -0.233.

For the sequence “MATYTCITCRVAFRDADMQRAHYKTDWHRYNLRRKVASMAPVTAEGFQERVRAQRAVAEEESKGSATYCTVCSKKFASFNAYENHLKSRRHVELEKKAVQAVNRKVEMMNEKNLEKGLGVDSVDKDAMNAAIQQAIKAQPSMSPKKAPPAPAKEARNVVAVGTGGRGTHDRDPSEKPPRLQWFEQQAKKLAKQQEEDSEEEEEDLDGDDWEDIDSDEELECEDTEAMDDVVEQDAEEEEAEEGPPLGAIPITDCLFCSHHSSSLMKNVAHMTKDHSFFIPDIEYLSDIKGLIKYLGEKVGVGKICLWCNEKGKSFYSTEAVQAHMNDKSHCKLFTDGDAALEFADFYDFRSSYPDHKEGEDPNKAEELPSEKNLEYDDETMELILPSGARVGHRSLMRYYKQRFGLSRAVAVAKNRKAVGRVLQQYRALGWTGSTGAALMRERDMQYVQRMKSKWMLKTGMKNNATKQMHFRVQVRF [ZNF622]”, the melting temperature turned out to be 53.3 °C in the series on HeLa Kyoto [1] (cell cycle stage: G1/S) and 53.7 °C in the series with HeLa Kyoto [1] (cell cycle stage: mitosis). Further, the thermal stability score is -2.54 in the series with HeLa Kyoto [2] (setting [5]) and -0.435 with HeLa Kyoto [2] (cell cycle stage: mitosis). In addition, the “solubility in G1/S (log2)” value with HeLa Kyoto [3] was -0.924. The “solubility change mitosis (log2)” value with HeLa Kyoto [4] stood at 0.0193.

As for “MAVAAAAAAAGPAGAGGGRAQRSGLLEVLVRDRWHKVLVNLSEDALVLSSEEGAAAYNGIGTATNGSFCRGAGAGHPGAGGAQPPDSPAGVRTAFTDLPEQVPESISNQKRGVKVLKQELGGLGISIKGGKENKMPILISKIFKGLAADQTQALYVGDAILSVNGADLRDATHDEAVQALKRAGKEVLLEVKYMREATPYVKKGSPVSEIGWETPPPESPRLGGSTSDPPSSQSFSFHRDRKSIPLKMCYVTRSMALADPENRQLEIHSPDAKHTVILRSKDSATAQAWFSAIHSNVNDLLTRVIAEVREQLGKTGIAGSREIRHLGWLAEKVPGESKKQWKPALVVLTEKDLLIYDSMPRRKEAWFSPVHTYPLLATRLVHSGPGKGSPQAGVDLSFATRTGTRQGIETHLFRAETSRDLSHWTRSIVQGCHNSAELIAEISTACTYKNQECRLTIHYENGFSITTEPQEGAFPKTIIQSPYEKLKMSSDDGIRMLYLDFGGKDGEIQLDLHSCPKPIVFIIHSFLSAKITRLGLVA [SNTB1]”, the melting temperature in the series with HeLa Kyoto [1] (cell cycle stage: G1/S) was determined as 49.9 °C; with HeLa Kyoto [1] (cell cycle stage: mitosis), 50.2 °C. Further, the thermal stability score was 0.836 in the series with HeLa Kyoto [2] (setting [5]) and 0.333 in the series on HeLa Kyoto [2] (cell cycle stage: mitosis). The “solubility in G1/S (log2)” value in the series on HeLa Kyoto [3] turned out to be 0.0289. Also, the “solubility change mitosis (log2)” value with HeLa Kyoto [4] worked out at 0.0627.

With “MAVAGAVSGEPLVHWCTQQLRKTFGLDVSEEIIQYVLSIESAEEIREYVTDLLQGNEGKKGQFIEELITKWQKNDQELISDPLQQCFKKDEILDGQKSGDHLKRGRKKGRNRQEVPAFTEPDTTAEVKTPFDLAKAQENSNSVKKKTKFVNLYTREGQDRLAVLLPGRHPCDCLGQKHKLINNCLICGRIVCEQEGSGPCLFCGTLVCTHEEQDILQRDSNKSQKLLKKLMSGVENSGKVDISTKDLLPHQELRIKSGLEKAIKHKDKLLEFDRTSIRRTQVIDDESDYFASDSNQWLSKLERETLQKREEELRELRHASRLSKKVTIDFAGRKILEEENSLAEYHSRLDETIQAIANGTLNQPLTKLDRSSEEPLGVLVNPNMYQSPPQWVDHTGAASQKKAFRSSGFGLEFNSFQHQLRIQDQEFQEGFDGGWCLSVHQPWASLLVRGIKRVEGRSWYTPHRGRLWIAATAKKPSPQEVSELQATYRLLRGKDVEFPNDYPSGCLLGCVDLIDCLSQKQFKEQFPDISQESDSPFVFICKNPQEMVVKFPIKGNPKIWKLDSKIHQGAKKGLMKQNKAV [TRIP4]”, the melting temperature in the series with HeLa Kyoto [1] (cell cycle stage: G1/S) turned out to be 50.6 °C; with HeLa Kyoto [1] (cell cycle stage: mitosis), 49.4 °C. Also, the results for the thermal stability score in the series with HeLa Kyoto [2] (setting [5]) and with HeLa Kyoto [2] (cell cycle stage: mitosis) were 1.04 and 0.759, respectively. In addition, the “solubility in G1/S (log2)” value in the series with HeLa Kyoto [3] is -0.111. Besides, in the series on HeLa Kyoto [4], the “solubility change mitosis (log2)” value is -0.0219.
